Data on eight molecules can be found in PMC4119751 (Biochemistry, 2013).

One test has as its system wild type Fv 447–52D. The test can be described thus: ITC, V3 peptide variants titrated into wild type Fv 447–52D. As to conditions: linear and cyclic V3 with wild type Fv, ITC 25 °C. In kind it is binding, human.
For test [1], the target named is Env of HIV-1 SF162 on pseudovirus (HIV-1 strain SF162).
In test [2] the target is V3_(MNCYCLIC) 14mer peptide … (HIV-1 strain MN). As to the kind of experiment: ITC.
Test [3] concerns the target T1, 14-mer V3 peptide KRIHIGPGRAFYTT (MN sequence) (HIV-1 strain MN, V3 crown (peptide)).
T1 chain: KRIHIGPGRAFYTT
The test can be described thus: ITC.

Test [4] has as its target T1, 14-mer V3 peptide KRIHIGPGRAFYTT (MN …). The test can be described thus: ITC.
Test [5] shares this target. As to the kind of experiment: ITC.
For test [6], the target named is T2, V3 peptide with Arg^315Gln mutation KRIHIGPGQAFYTT (HIV-1 strain MN, V3 crown, Arg315Gln …, point mutant).
T2 chain: KRIHIGPGQAFYTT
As to the kind of experiment: ITC.

A further test relates to SF162 pseudovirus. As to the kind of experiment: TZM-bl neutralization assay against SF162 pseudovirus. In kind it is cell-based, HIV-1. As to conditions: Fv mutant vs wild type Fv.

Read-outs that look alike come from different tables or passages of the source. Bridge positions count the residues as written; N and C are the ends. Ends that are not written are not given here.

Consider “CRIHIGPGRAFYTC (disulfide 1-14 (inferred)) [V3 Cyclic]”, for which the “effect of cyclization on affinity (in words)” value in the test with wild type Fv 447–52D is reported as “cyclization of the V3 crown did not affect much of its interaction with mAb 447–52D”.
Regarding Fv 447–52D wild type, the IC50 of neutralisation of SF162 pseudovirus, TZM-bl cells (luciferase) in test [1] came out at 19 µM. The molecule further gave a Kd in test [2] of 16 nM.

B1: Fv 447–52D Tyr^H100JThr (other, human)
VH: EVQLVESGGGLVKPGGSLRLTCVASGFTFSDVWLNWVRQAPGKGLEWVGRIKSRTDGGTTDYAASVKGRFTISRDDSKNTLYLQMNSLKTEDTAVYSCTTDGFIMIRGVSEDYYYTYMDVWGKGTTVTVSS
VL: QSVLTQPPSVSAAPGQKVTISCSGSSSNIGNNYVLWYQQFPGTAPKLLIYGNNKRPSGIPDRFSGSKSGTSATLGITGLQTGDEADYFCATWDSGLSADWVFGGGTKLTVL
The molecule B1 yielded an IC50 of neutralisation of SF162 pseudovirus, TZM-bl cells (luciferase) in test [1] of 23 µM. This molecule had an other in test [3] of 3.3 kcal/mol. In test [4], the Kd came out at 1300 nM.

B2: Fv 447–52D Asp^H95Asn (other, human)
VH: EVQLVESGGGLVKPGGSLRLTCVASGFTFSDVWLNWVRQAPGKGLEWVGRIKSRTDGGTTDYAASVKGRFTISRDDSKNTLYLQMNSLKTEDTAVYSCTTNGFIMIRGVSEDYYYYYMDVWGKGTTVTVSS
VL: QSVLTQPPSVSAAPGQKVTISCSGSSSNIGNNYVLWYQQFPGTAPKLLIYGNNKRPSGIPDRFSGSKSGTSATLGITGLQTGDEADYFCATWDSGLSADWVFGGGTKLTVL
Regarding B2, in test [1], the IC50 of neutralisation of SF162 pseudovirus, TZM-bl cells (luciferase) worked out at 41 µM. This molecule displayed an other in test [3] of 5.04 kcal/mol. The Kd in test [4] amounted to 3900 nM.

B3: Fv 447–52D Trp^L96Ala (other, human)
VH: EVQLVESGGGLVKPGGSLRLTCVASGFTFSDVWLNWVRQAPGKGLEWVGRIKSRTDGGTTDYAASVKGRFTISRDDSKNTLYLQMNSLKTEDTAVYSCTTDGFIMIRGVSEDYYYYYMDVWGKGTTVTVSS
VL: QSVLTQPPSVSAAPGQKVTISCSGSSSNIGNNYVLWYQQFPGTAPKLLIYGNNKRPSGIPDRFSGSKSGTSATLGITGLQTGDEADYFCATWDSGLSADAVFGGGTKLTVL
In the case of B3, the IC50 of neutralisation of SF162 pseudovirus, TZM-bl cells (luciferase) in test [1] was 50 µM. Further, the other in test [3] stood at 1.22 kcal/mol. This molecule registered a Kd in test [5] of 1.8 µM.

B4: Fv 447–52D wild type (other, human)
VH: EVQLVESGGGLVKPGGSLRLTCVASGFTFSDVWLNWVRQAPGKGLEWVGRIKSRTDGGTTDYAASVKGRFTISRDDSKNTLYLQMNSLKTEDTAVYSCTTDGFIMIRGVSEDYYYYYMDVWGKGTTVTVSS
VL: QSVLTQPPSVSAAPGQKVTISCSGSSSNIGNNYVLWYQQFPGTAPKLLIYGNNKRPSGIPDRFSGSKSGTSATLGITGLQTGDEADYFCATWDSGLSADWVFGGGTKLTVL
Regarding B4, the dH in test [3] is -8.54 kcal/mol. The Kd in test [4] came to 23 nM; in test [6] it was 5.1 µM.

B5: Fv 447–52D Trp^L91Ala (other, human)
VH: EVQLVESGGGLVKPGGSLRLTCVASGFTFSDVWLNWVRQAPGKGLEWVGRIKSRTDGGTTDYAASVKGRFTISRDDSKNTLYLQMNSLKTEDTAVYSCTTDGFIMIRGVSEDYYYYYMDVWGKGTTVTVSS
VL: QSVLTQPPSVSAAPGQKVTISCSGSSSNIGNNYVLWYQQFPGTAPKLLIYGNNKRPSGIPDRFSGSKSGTSATLGITGLQTGDEADYFCATADSGLSADWVFGGGTKLTVL
Consider B5, for which the IC50 of neutralisation of SF162 pseudovirus, TZM-bl cells (luciferase) in test [1] was 76 µM. For the same molecule, in test [3], the other was found to be 4.72 kcal/mol. The “fold decrease in neutralization capability” value with SF162 pseudovirus is given as 4.0 fold. In test [5], this molecule returned a Kd of 5.4 µM.

B6: Fv 447–52D Trp^H33Ala (other, human)
VH: EVQLVESGGGLVKPGGSLRLTCVASGFTFSDVALNWVRQAPGKGLEWVGRIKSRTDGGTTDYAASVKGRFTISRDDSKNTLYLQMNSLKTEDTAVYSCTTDGFIMIRGVSEDYYYYYMDVWGKGTTVTVSS
VL: QSVLTQPPSVSAAPGQKVTISCSGSSSNIGNNYVLWYQQFPGTAPKLLIYGNNKRPSGIPDRFSGSKSGTSATLGITGLQTGDEADYFCATWDSGLSADWVFGGGTKLTVL
On to B6, for which, in test [1], the IC50 of neutralisation of SF162 pseudovirus, TZM-bl cells (luciferase) amounted to 68 µM. In addition, the other in test [3] came out at 4.02 kcal/mol. In test [4], this molecule displayed a Kd of 3900 nM.
